Experimental data: the supplement of paper PMC9732359
± gives the uncertainty stated by the source.

Test: protein stability index of a GFP-peptide fusion (yeast GPS) (PSI 1-4); higher = more stable; sorted into four equal gates, so the index is relative within each strain
Summary of the method: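 Peptides tiling yeast proteins in 17-residue segments were fused downstream of GFP, with Cherry expressed from the same plasmid. As a pooled library in yeast, mid-log cultures grown in leucine-free medium were sorted into four equal gates by GFP/Cherry fluorescence ratio. Gate plasmids were PCR-amplified and Illumina-sequenced, and barcodes linked reads to strains. Each peptide received a protein stability index equal to the sum of each gate's read frequency times its gate number.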

Row | Sequence | protein stability index (doa10∆) | protein stability index (san1∆) | protein stability index (ubr1∆) | protein stability index (pdr5∆)
1 | EENGDSIKEHSTTMDGA [MED1] | 3.32 ± 0.19 | 3.21 ± 0.14 | 3.57 ± 0.14 | 
2 | SQTTLVQFGLNEETFTV [ARP9] | 2.85 ± 0.086 | 2.77 ± 0.069 | 2.64 ± 0.059 | 2.92 ± 0.072
3 | RGGFGGRNRGRPNRRGP [RPS2] | 3.37 ± 0.095 | 3.44 ± 0.077 | 3.4 ± 0.13 | 3.28 ± 0.14
4 | DKDAFIPKLKPAPINSL [SNU114] | 2.81 ± 0.069 | 2.83 ± 0.05 | 2.84 ± 0.054 | 2.88 ± 0.063
5 | VGGQFSKVQFDAKTSYP [REC8] | 3.19 ± 0.095 | 3 ± 0.077 | 3.19 ± 0.055 | 3.17 ± 0.094
6 | QNVISLGSLTVEDYLSS [RPC82] | 2.83 ± 0.095 | 2.06 ± 0.12 | 3 ± 0.074 | 2.84 ± 0.078
7 | NVYVGMTDMQIQWYKSL [ISW2] | 1.96 ± 0.057 | 1.99 ± 0.072 | 3.14 ± 0.069 | 2.41 ± 0.059
8 | MCHIVRKFHELNDHIDD [GRR1] | 2.13 ± 0.053 | 2.18 ± 0.079 | 1.72 ± 0.04 | 2.31 ± 0.071
9 | LTLDPRYIWRSLKDLSS [RPN3] | 2.78 ± 0.14 | 2.82 ± 0.097 |  | 2.39 ± 0.29
10 | GTGLQSYLEERERQVNE [RPC53] | 3.17 ± 0.16 | 3.14 ± 0.11 | 3.25 ± 0.13 | 3.24 ± 0.12
11 | ADGLLQVLVCTATLAWG [BRR2] |  | 2.17 ± 0.18 | 2.14 ± 0.25 | 1.77 ± 0.28
12 | APGASVPATAAPGTEAG [SWI1] | 2.99 ± 0.094 | 2.92 ± 0.079 | 3.18 ± 0.07 | 3.05 ± 0.075
13 | PAGQATQKRTHVLKKNP [RPL4A] | 2.95 ± 0.22 | 3.28 ± 0.22 | 2.74 ± 0.14 | 3.21 ± 0.21
14 | HDFIKGLIMLNLQPASV [NUT1] | 1.83 ± 0.059 | 1.22 ± 0.14 | 1.24 ± 0.065 | 1.24 ± 0.071
15 | IVKASNWRLVEVGRVVL [RPL14A] | 2.8 ± 0.1 |  | 1.69 ± 0.089 | 1.43 ± 0.13
16 | MFANMKVLGVKDMSPIL [LRP1] | 1.84 ± 0.069 | 1.41 ± 0.072 | 1.46 ± 0.047 | 1.52 ± 0.046
17 | LLERGRLRKRVTIIPLD [SMC2] | 2.25 ± 0.06 | 2.26 ± 0.059 | 2.12 ± 0.057 | 2.71 ± 0.059
18 | FDVNNIDMHLIYGVEWL [YDL116W/NUP84] | 2.12 ± 0.059 | 1.92 ± 0.074 | 2.27 ± 0.044 | 2.09 ± 0.049
19 | EKPDNSNHNNLNLNNSE [SNF2] | 3.02 ± 0.043 | 3.15 ± 0.036 | 3.17 ± 0.034 | 3.19 ± 0.051
20 | TPDTKNFFHAKKKDPVN [SNF12] | 3.29 ± 0.097 | 3.1 ± 0.068 | 3.17 ± 0.1 | 2.97 ± 0.079
21 | EDDNTPAGHAGNPTNIS [YDL088C/ASM4] | 2.87 ± 0.076 | 2.91 ± 0.052 | 3.1 ± 0.046 | 2.88 ± 0.063
22 | GSCTRQLAGKSGEDTNV [YOR098C/NUP1] | 3.38 ± 0.2 | 3.34 ± 0.12 | 3.17 ± 0.082 | 3.51 ± 0.15
23 | KLHVNWNLNATKPNVLN [SIN4] | 2.94 ± 0.17 | 2.85 ± 0.11 | 2.93 ± 0.098 | 2.86 ± 0.11
24 | GVTDLFRHFIGIKAKHD [ISW2] | 1.2 ± 0.13 |  |  | 1.43 ± 0.11
25 | PIAQPATDVEARAVQDN [RPL13A] | 3.02 ± 0.15 | 3.1 ± 0.14 | 1.69 ± 0.2 | 3.17 ± 0.11
26 | DTVNSALENDVATNIVN [YML103C/NUP188] | 2.87 ± 0.051 | 3.09 ± 0.046 | 3.19 ± 0.055 | 3.14 ± 0.064
27 | SLLLKNYLNDMHDSNLQ [SKP1] | 2.31 ± 0.093 | 1.81 ± 0.093 | 2.08 ± 0.05 | 2.48 ± 0.05

Row | Sequence | protein stability index (doa10∆) | protein stability index (san1∆) | protein stability index (ubr1∆) | protein stability index (pdr5∆)
28 | RSSSASNEFVPNTSDNN [SWI1] | 2.72 ± 0.068 | 2.69 ± 0.059 | 2.9 ± 0.063 | 2.77 ± 0.09
29 | IINPHAIPSRMTVAHLI [RPB2] | 1.79 ± 0.054 | 1.86 ± 0.076 | 2.1 ± 0.046 | 2.06 ± 0.044
30 | DIDDILKKGEQKTQELN [ISW2] | 3.31 ± 0.22 | 3.44 ± 0.099 | 3.56 ± 0.092 | 3.21 ± 0.1
31 | DIEQLEYSRDCFCEDHC [RPB3] | 3.1 ± 0.064 | 2.92 ± 0.066 | 2.61 ± 0.065 | 2.54 ± 0.052
32 | AKSTVETFISSMTATAD [RIP1] | 1.89 ± 0.073 | 2.93 ± 0.061 | 1.48 ± 0.05 | 2.13 ± 0.077
33 | AQYEVLANYLTSALSEL [QCR2] | 1.94 ± 0.05 | 1.99 ± 0.067 | 1.68 ± 0.044 | 2.18 ± 0.04
34 | QPKDLRAKKTRALRRAL [RPL35A] |  |  | 3.1 ± 0.15 | 
35 | SEILSFDPVYTTVITVF [YML103C/NUP188] | 2.08 ± 0.059 | 1.6 ± 0.11 | 1.62 ± 0.048 | 2.27 ± 0.051
36 | DDSFFNETNDKKRNPSK [PRP28] | 3.16 ± 0.098 | 3.13 ± 0.072 | 2.85 ± 0.084 | 2.96 ± 0.1
37 | ELFDILSTSEDVSIEEL [IRR1] | 2.66 ± 0.17 | 2.6 ± 0.21 | 2 ± 0.13 | 2.15 ± 0.2
38 | LEFRWLTSSKSVIVSQF [SIN4] | 1.73 ± 0.056 | 1.6 ± 0.087 | 1.42 ± 0.061 | 1.56 ± 0.059
39 | YKCTAAMEKYLLSKSKI [MTW1] | 2.21 ± 0.038 | 2.44 ± 0.049 | 2.69 ± 0.03 | 2.58 ± 0.056
40 | SPPCYIIDHIPGHSLLL [SNF5] | 2.14 ± 0.063 | 2.3 ± 0.079 | 2.49 ± 0.047 | 2.54 ± 0.057
41 | VDKIFEKVNNNATLTPN [SWI1] | 3.09 ± 0.079 | 3.22 ± 0.069 | 3.15 ± 0.051 | 3.08 ± 0.073
42 | DEGMESIEMEEETDDED [RRI2] |  | 3.26 ± 0.18 | 3.35 ± 0.14 | 
43 | HAGTAIGIMASDGIVLA [PRE9] | 2.96 ± 0.095 | 3.09 ± 0.1 | 2.42 ± 0.14 | 3.02 ± 0.14
44 | SESGSKLNVDQFISSRQ [POP1] | 3.27 ± 0.058 | 3.29 ± 0.055 | 3.21 ± 0.068 | 3.37 ± 0.063
45 | RLNKLNSNGIAMASLYL [SMD1] | 2.82 ± 0.075 | 2.78 ± 0.065 | 2.67 ± 0.069 | 2.95 ± 0.063
46 | GRENFVYANNPEVSDDG [SIR3] | 3.05 ± 0.096 | 2.8 ± 0.1 | 3.03 ± 0.068 | 3.08 ± 0.085
47 | HYLFNTFTFTAHMGVLL [SWP82] | 1.69 ± 0.039 | 1.39 ± 0.072 | 1.51 ± 0.024 | 1.68 ± 0.036
48 | RLLNTNVDGNIKIVYAL [RPS18A] |  |  | 3.27 ± 0.16 | 
49 | QNIILRSTMMKFLKIAS [RPN3] | 2.15 ± 0.072 | 2.86 ± 0.077 | 3.03 ± 0.048 | 2.42 ± 0.067
50 | IEKFEQVPDSLDDQIFV [RPN6] | 3.31 ± 0.079 | 3.53 ± 0.053 | 3.27 ± 0.079 | 3.35 ± 0.065
51 | YIFCISRTIGMVVNGPI [SCL1] | 1.45 ± 0.038 | 1.58 ± 0.082 | 1.56 ± 0.034 | 1.54 ± 0.047
52 | QSTQTDLEKTERIVVSY [SMC2] | 2.98 ± 0.052 | 2.56 ± 0.058 | 2.69 ± 0.044 | 2.94 ± 0.065
53 | DTLLLLPTDGGLTSRLQ [POP4] | 3.01 ± 0.14 | 3.13 ± 0.095 | 3.26 ± 0.13 | 3.06 ± 0.15
